Experimental data from publication doi:10.1101/2025.07.30.667432 (bioRxiv, 2025).

Legend:
Assay in all cases: affinity purification with mass spectrometry
Nup192 = Nup192 (Saccharomyces cerevisiae (strain ATCC …, UniProt P47054))
Nic96 = Nic96 (Saccharomyces cerevisiae, UniProt P34077)
Nsp1 = Nsp1 (Saccharomyces cerevisiae (strain ATCC …, UniProt P14907))
Nup57 = Nup57 (Saccharomyces cerevisiae (strain ATCC …, UniProt P48837))
Nup49 = Nup49 (Saccharomyces cerevisiae (strain ATCC …, UniProt Q02199))
Chain of Nup49 (Saccharomyces cerevisiae (Q02199 whole entry): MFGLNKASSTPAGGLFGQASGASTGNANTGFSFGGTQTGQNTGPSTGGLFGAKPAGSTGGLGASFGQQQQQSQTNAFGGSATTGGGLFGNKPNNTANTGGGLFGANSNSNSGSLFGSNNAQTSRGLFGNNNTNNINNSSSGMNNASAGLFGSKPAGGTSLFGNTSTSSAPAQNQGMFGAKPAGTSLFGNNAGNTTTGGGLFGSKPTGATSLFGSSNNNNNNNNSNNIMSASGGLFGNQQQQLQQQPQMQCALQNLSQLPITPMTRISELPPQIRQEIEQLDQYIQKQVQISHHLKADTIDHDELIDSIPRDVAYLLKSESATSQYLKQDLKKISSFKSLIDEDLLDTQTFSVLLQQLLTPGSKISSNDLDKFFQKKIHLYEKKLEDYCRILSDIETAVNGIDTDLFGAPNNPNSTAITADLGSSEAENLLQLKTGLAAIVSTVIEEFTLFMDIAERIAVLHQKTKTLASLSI

Pom152 = Pom152 (Saccharomyces cerevisiae (strain ATCC …, UniProt P39685))
Chain of Pom152 (Saccharomyces cerevisiae (P39685 whole entry): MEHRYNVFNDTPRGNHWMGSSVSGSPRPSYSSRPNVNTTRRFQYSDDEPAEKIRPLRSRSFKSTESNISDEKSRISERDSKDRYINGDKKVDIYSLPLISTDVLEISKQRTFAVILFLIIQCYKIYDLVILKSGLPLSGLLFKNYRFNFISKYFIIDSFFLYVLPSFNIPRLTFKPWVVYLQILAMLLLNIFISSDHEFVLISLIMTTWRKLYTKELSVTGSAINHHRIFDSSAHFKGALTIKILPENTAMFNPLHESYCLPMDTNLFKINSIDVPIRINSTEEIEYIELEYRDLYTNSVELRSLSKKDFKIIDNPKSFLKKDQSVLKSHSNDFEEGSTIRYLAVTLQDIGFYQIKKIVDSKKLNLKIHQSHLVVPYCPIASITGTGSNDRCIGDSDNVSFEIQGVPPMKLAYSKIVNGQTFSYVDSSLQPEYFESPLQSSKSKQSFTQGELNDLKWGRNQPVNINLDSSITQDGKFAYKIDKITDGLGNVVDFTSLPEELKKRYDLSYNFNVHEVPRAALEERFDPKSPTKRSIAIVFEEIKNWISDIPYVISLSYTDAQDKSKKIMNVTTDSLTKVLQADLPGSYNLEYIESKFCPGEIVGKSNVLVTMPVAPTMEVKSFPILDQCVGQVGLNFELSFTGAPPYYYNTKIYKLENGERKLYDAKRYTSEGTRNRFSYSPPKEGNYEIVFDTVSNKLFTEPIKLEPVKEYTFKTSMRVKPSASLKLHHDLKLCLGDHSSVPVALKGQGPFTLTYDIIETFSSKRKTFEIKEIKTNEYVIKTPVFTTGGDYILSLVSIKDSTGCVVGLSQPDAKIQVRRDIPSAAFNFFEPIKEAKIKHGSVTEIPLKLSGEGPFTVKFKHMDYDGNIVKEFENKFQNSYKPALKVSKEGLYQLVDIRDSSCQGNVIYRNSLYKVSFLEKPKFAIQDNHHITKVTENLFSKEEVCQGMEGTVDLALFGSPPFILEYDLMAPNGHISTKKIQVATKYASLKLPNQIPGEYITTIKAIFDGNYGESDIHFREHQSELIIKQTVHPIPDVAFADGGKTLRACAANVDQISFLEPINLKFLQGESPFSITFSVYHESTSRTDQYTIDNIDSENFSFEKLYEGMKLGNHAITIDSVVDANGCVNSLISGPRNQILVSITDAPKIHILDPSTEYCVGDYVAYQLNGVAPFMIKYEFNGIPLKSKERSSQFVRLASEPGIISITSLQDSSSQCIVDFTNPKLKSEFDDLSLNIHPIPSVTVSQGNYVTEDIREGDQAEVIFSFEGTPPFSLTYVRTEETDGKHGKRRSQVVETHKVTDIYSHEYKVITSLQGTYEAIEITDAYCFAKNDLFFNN

Pom34-ZZ = Pom34-ZZ (Saccharomyces cerevisiae (strain ATCC …, UniProt Q12445))
Chain of Pom34-ZZ (Saccharomyces cerevisiae (Q12445 whole entry): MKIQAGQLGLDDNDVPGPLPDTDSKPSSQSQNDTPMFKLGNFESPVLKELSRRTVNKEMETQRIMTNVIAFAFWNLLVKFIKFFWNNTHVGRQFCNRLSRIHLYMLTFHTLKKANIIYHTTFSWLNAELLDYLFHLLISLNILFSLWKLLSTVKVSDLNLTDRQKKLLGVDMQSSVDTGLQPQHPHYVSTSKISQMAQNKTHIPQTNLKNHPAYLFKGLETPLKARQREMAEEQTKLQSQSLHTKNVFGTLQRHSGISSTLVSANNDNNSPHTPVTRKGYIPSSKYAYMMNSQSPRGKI

Measured: binding result

Chain of Nup192 (Saccharomyces cerevisiae (P47054 whole entry): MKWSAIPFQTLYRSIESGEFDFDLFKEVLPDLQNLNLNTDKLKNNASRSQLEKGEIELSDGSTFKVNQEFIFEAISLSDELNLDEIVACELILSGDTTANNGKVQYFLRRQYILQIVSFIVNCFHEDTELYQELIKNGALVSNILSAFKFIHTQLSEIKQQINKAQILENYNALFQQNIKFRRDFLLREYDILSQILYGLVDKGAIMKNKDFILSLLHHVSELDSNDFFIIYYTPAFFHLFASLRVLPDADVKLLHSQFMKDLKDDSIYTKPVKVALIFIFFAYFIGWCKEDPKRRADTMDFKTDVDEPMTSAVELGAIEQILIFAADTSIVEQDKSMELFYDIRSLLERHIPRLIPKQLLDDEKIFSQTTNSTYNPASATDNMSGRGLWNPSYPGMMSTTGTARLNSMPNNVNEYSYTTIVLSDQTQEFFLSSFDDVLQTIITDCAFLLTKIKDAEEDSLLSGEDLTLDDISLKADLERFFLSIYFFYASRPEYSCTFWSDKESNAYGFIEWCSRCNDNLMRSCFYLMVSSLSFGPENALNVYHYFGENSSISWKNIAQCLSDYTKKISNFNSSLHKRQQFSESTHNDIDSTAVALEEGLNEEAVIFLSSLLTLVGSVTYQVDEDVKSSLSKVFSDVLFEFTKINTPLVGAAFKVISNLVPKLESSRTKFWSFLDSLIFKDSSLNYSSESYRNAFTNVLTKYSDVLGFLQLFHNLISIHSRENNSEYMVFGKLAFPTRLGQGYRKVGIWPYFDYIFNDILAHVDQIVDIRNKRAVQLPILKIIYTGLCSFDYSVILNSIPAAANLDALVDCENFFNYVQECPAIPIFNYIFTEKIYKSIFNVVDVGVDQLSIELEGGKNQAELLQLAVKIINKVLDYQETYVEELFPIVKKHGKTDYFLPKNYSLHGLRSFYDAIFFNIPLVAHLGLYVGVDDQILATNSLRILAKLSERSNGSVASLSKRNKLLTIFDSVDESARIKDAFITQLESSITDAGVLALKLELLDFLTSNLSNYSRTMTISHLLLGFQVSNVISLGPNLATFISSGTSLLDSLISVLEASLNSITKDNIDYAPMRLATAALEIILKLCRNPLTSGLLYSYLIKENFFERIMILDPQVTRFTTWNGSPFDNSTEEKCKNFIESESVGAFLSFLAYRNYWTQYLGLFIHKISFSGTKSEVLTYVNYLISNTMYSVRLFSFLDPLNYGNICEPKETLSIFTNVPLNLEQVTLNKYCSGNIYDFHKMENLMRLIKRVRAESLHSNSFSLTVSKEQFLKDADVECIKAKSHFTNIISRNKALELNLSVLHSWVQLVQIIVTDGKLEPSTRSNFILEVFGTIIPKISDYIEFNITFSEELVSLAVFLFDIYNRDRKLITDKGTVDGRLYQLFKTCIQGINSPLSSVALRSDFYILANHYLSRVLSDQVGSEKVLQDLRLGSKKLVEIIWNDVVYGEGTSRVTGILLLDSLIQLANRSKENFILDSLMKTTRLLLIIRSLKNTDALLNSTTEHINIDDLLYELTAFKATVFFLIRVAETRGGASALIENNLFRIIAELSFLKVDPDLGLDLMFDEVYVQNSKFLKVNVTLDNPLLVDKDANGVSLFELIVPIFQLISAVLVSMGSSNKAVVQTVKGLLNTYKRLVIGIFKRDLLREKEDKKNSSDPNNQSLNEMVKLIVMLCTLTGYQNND
Chain of Nup57 (Saccharomyces cerevisiae (P48837 whole entry): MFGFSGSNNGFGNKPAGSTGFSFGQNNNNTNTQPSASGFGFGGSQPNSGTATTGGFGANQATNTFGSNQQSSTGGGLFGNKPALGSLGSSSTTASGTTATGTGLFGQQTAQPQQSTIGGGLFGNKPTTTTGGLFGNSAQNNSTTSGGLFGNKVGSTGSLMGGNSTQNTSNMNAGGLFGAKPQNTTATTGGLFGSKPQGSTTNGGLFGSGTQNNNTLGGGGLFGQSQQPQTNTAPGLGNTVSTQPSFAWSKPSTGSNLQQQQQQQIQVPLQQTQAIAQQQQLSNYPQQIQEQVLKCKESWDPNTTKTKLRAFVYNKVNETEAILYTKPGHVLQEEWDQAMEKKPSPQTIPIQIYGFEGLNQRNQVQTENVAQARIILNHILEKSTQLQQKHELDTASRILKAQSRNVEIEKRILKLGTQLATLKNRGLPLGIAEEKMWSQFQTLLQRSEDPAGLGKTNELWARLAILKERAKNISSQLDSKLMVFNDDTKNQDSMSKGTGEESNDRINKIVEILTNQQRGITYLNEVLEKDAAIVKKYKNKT

B1: VHH[Nic96]-ZZ (VHH)
VHH: QVQLVETGGGLVQAGGSLRLSCATSGFNFRLRTMGWYRQAPGKERELVASITSGGSTDYADSVKGRFTISRDNAKNTISLEMNSLKPDDTAVYYCNIWAPTTAAITNWGQGTQVTVSS
not listed: Pom34-ZZ
binds: all other assays above

B2: VHH[Nic96] (as expressed in the Pom34-ZZ strain) (VHH)
VHH: B1 VHH
binds: Pom34-ZZ
